According to PMC7618200 (The Biochemical journal, 2025):

B1: MyD88 peptide 125AEKPLQVAAVDSSVPRT141 (17-mer) [human] / SPOP MATH domain (SPOP^MATH; residues 28-166) [human] (parent complex)
chain 1: AEKPLQVAAVDSSVPRT
chain 2: KVVKFSYMWTINNFSFCREEMGEVIKSSTFSSGANDKLKWCLRVNPKGLDEESKDYLSLYLLLVSCPKSEVRAKFKFSILNAKGEETKAMESQRAYRFVQGKDWGFKKFIRRDFLLDEANGLLPDDKLTLFCEVSVVQD

Variants of: B1
Experiment: FP competition assay; competitor against fluorescently labeled Puc peptide

| IC50 [mM] | Variant |
| --- | --- |
| ~2.11 | chain 1 D11A, chain 1 S12A, chain 1 S13A |
